Results taken from US7148329 (KATHOLIEKE UNIVERSITEIT NIJMEGEN, dated 2006).

T1: DC-Specific ICAM-3 Grabbing Non-integrin (DC-SIGN) (human, UniProt Q9NNX6 1-404)
T1 construct: Type II membrane protein of 404 aa, on monocyte-derived DC or on COS7 cells transfected with pRc/CMV-DC-SIGN; in immunoprecipitation and pull-down it came from DC lysate; also called C-type lectin on dendritic cells
T1 sequence: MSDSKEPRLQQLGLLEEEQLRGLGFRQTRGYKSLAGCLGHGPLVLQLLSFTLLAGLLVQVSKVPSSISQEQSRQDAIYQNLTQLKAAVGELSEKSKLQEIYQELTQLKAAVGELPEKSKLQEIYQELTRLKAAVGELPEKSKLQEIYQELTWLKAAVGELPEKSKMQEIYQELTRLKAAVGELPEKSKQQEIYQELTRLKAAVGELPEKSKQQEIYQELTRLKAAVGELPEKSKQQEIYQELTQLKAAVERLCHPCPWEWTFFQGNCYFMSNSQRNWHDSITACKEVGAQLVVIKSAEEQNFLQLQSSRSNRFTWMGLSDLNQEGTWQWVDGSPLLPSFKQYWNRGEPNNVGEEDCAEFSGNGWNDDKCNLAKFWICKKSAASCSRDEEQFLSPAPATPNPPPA


Columns and labels:
[1] = target: DC-Specific ICAM-3 Grabbing Non-integrin (DC-SIGN) (human) (UniProt Q9NNX6); assay: cell-based or functional assay
[2] = target: DC-Specific ICAM-3 Grabbing Non-integrin (DC-SIGN) (human) (UniProt Q9NNX6); assay: flow cytometry on COS7 cells transfected with DC-SIGN cDNA
[3] = target: DC-Specific ICAM-3 Grabbing Non-integrin (DC-SIGN) (human) (UniProt Q9NNX6); assay: flow cytometry on DC day 7; meaning of the grade from the table's footnote
[4] = target: T1, DC-Specific ICAM-3 Grabbing …; assay: binding to K562 transfectants (FIG. 8)

| Molecule | DC-T cell clustering (percentage of DC which have bound fluorescent T cells) [1] | HIV-1 replication (p24 Gag) in DC-T cell co-culture, DC pre-incubated with antibody before the HIV-1 pulse [1] | T-lymphocyte proliferation induced by allogeneic DC ([3H]methyl-thymidine uptake) [1] | percent of transfected cells stained [2] | mean fluorescence [3] | binding result [4] |
| --- | --- | --- | --- | --- | --- | --- |
| AZN-D1 (antibody) | 50% | > 75% | > 75% | 30% | > 400 | – |
| AZN-D2 (antibody) | 50% | > 75% | > 75% | – | – | – |
| ICAM-2 expressed on K562 cells (ligand, UniProt P13598 25-275, looked up, whole, on cells) KVFEVHVRPKKLAVEPKGSLEVNCSTTCNQPEVGGLETSLDKILLDEQAQWKHYLVSNISHDTVLQCHFTCSGKQESMNSNVSVYQPPRQVILTLQPTLVAVGKSFTIECRVPTVEPLDSLTLFLFRGNETLHYETFGKAAPAPQEATATFNSTADREDGHRNFSCLAVLDLMSRGGNIFHKHSAPKMLEIYEPVSDSQMVIIVTVVSVLLSLFVTSVLLCFIFGQHLRQQRMGTYGVRAAWRRLPQAFRP | – | – | – | – | – | binds |
